Test results: ChEMBL document CHEMBL4613261, “Metabolic and Pharmaceutical Aspects of Fluorinated Compounds” (J Med Chem, 2020)

B1: (Rattus norvegicus) (protein)
chain: MAQTPAFNKPKVELHVHLDGAIKPETILYYGKKRGIDLPADTVEGLRNIIGMDKPLSLPDFLAKFDYYMPAIAGCREAIKRIAYEFVEMKAKEGVVYVEVRYSPHLLANSKVDPIPWNQAEGDLTPDEVVDLVNQGLQEGEQAFGIKVRSILCCMRHQPSWSPEVLELCKKYHQKTVVAMDLAGDETIEGSSLFPGHVEAYEGAVKDGIHRTVHAGEVGSAEVVREAVDILKTERVGHGYHTIEDEALYNRLLKENMHFEVCPWSSYLTGAWNPKTTHAVVRFKDDQANYSLNSDDPLIFKSTVDTDYQMVKKDMGFTEEEFKRLNINAAKSSFLPEDEKKELLERLYKEYQ
B2: Alanine racemase, biosynthetic (Escherichia coli K-12), P0A6B4 (protein)
chain: MQAATVVINRRALRHNLQRLRELAPASKMVAVVKANAYGHGLLETARTLPDADAFGVARLEEALRLRAGGITKPVLLLEGFFDARDLPTISAQHFHTAVHNEEQLAALEEASLDEPVTVWMKLDTGMHRLGVRPEQAEAFYHRLTQCKNVRQPVNIVSHFARADEPKCGATEKQLAIFNTFCEGKPGQRSIAASGGILLWPQSHFDWVRPGIILYGVSPLEDRSTGADFGCQPVMSLTSSLIAVREHKAGEPVGYGGTWVSERDTRLGVVAMGYGDGYPRAAPSGTPVLVNGREVPIVGRVAMDMICVDLGPQAQDKAGDPVILWGEGLPVERIAEMTKVSAYELITRLTSRVAMKYVD

Tests used:
[1] = substrate: OC[C@@H]1CC[C@H](n2cnc3c(F)ncnc32)O1; experiment: (§1) Prodrug conversion in rat blood assessed as Km for adenosine deaminase-mediated didanosine formation by HPLC analysis; format: ADME, tissue-based
[2] = substrate: OC[C@@H]1CC[C@H](n2cnc3c(Cl)ncnc32)O1; experiment: as §1; format: ADME, tissue-based
[3] = substrate: OC[C@@H]1CC[C@H](n2cnc3c(Br)ncnc32)O1; experiment: as §1; format: ADME, tissue-based
[4] = substrate: C[C@H](N)C(=O)O; conditions: Escherichia coli B
Description: (§2) Substrate activity at Escherichia coli B alanine racemase assessed as Km

[5] = substrate: N[C@H](CF)C(=O)O; conditions: Escherichia coli B
Description: as §2

[6] = substrate: N[C@@H](CF)C(=O)O; conditions: Escherichia coli B
Description: as §2

Protein	Km [1]	Km [2]	Km [3]	Km [4]	Km [5]	Km [6]
B1	720 µM	17000 µM	16000 µM	–	–	–
B2	–	–	–	1300 µM	2400 µM	50 µM
